Assay in all cases: indirect ELISA, VLP coated at 2 μg/mL, antibody at 10 ng/mL
(An ELISA detects its analyte on a solid surface through an enzyme-linked reagent.)

One experiment concerns the target T1, HPV11 VLP (Human papillomavirus type 11, UniProt P04012 1-501).
T1 construct: also called HPV11完整VLP蛋白
T1 sequence: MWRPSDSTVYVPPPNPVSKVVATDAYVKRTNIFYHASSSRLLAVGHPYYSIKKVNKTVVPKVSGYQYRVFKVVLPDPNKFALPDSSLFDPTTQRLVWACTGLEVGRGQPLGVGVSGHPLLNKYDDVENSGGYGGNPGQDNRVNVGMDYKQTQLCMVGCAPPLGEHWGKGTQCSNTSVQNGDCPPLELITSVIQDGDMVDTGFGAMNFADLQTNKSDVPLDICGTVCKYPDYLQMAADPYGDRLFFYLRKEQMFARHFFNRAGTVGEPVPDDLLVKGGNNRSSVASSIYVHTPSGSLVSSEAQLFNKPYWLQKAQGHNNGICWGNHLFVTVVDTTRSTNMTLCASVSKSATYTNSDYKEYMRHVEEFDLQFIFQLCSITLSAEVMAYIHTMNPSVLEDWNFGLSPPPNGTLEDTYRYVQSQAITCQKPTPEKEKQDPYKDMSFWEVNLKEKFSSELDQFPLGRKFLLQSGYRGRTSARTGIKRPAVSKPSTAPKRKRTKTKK

The next experiment concerns the target T2, HPV18 VLP (Human papillomavirus type 18, UniProt P06794 62-568).
T2 construct: also called HPV18完整VLP蛋白
T2 sequence: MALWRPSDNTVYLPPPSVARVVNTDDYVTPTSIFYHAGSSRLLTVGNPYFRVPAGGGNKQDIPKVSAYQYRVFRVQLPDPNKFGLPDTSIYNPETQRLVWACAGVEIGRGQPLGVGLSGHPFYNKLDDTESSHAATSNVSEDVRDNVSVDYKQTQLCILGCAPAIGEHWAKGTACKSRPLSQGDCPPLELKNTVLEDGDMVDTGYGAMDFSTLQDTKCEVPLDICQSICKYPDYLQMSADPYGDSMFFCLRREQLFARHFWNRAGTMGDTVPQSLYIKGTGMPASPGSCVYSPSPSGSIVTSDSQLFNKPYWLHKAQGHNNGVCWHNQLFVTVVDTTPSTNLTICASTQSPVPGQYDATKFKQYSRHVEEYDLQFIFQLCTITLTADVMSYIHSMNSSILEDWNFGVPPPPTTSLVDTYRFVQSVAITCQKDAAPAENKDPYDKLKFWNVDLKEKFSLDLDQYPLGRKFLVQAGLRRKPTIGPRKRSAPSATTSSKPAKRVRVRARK

The target of the next experiment is T3, HPV58 VLP (Human papillomavirus type 58, UniProt P26535 27-524).
T3 construct: also called HPV58完整VLP蛋白
T3 sequence: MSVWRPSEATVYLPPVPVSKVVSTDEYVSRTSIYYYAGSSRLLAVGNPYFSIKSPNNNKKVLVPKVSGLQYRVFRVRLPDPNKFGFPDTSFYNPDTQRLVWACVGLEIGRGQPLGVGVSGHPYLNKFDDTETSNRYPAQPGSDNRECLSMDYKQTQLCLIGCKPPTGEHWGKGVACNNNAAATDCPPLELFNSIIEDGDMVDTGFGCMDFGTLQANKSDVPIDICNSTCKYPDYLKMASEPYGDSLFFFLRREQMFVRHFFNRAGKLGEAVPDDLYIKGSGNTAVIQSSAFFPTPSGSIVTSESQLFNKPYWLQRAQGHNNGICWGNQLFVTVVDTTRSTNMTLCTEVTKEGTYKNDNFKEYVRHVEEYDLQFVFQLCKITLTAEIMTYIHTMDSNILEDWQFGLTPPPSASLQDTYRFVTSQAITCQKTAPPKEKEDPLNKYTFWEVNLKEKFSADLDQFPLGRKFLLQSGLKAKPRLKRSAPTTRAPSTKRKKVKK

For a further experiment, the target named is T4, HPV51 VLP (Human papillomavirus type 51, UniProt P26536 1-504).
T4 construct: also called HPV51完整VLP蛋白
T4 sequence: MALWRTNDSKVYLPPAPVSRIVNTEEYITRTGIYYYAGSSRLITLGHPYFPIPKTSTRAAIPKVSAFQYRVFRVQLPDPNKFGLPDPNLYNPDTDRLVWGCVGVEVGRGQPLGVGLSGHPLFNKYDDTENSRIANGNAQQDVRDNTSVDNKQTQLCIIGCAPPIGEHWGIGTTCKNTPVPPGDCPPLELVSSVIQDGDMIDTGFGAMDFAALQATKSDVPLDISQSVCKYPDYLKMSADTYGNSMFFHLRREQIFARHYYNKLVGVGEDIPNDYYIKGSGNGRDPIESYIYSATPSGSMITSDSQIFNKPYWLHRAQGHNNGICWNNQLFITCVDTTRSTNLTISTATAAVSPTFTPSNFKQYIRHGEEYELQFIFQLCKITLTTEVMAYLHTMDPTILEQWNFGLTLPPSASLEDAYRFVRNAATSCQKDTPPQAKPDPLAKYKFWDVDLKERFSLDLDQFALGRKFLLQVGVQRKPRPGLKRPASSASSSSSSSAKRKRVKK

Another experiment concerns the target T5, HPV52 VLP (Human papillomavirus type 52, UniProt Q05138 27-529).
T5 construct: also called HPV52完整VLP蛋白
T5 sequence: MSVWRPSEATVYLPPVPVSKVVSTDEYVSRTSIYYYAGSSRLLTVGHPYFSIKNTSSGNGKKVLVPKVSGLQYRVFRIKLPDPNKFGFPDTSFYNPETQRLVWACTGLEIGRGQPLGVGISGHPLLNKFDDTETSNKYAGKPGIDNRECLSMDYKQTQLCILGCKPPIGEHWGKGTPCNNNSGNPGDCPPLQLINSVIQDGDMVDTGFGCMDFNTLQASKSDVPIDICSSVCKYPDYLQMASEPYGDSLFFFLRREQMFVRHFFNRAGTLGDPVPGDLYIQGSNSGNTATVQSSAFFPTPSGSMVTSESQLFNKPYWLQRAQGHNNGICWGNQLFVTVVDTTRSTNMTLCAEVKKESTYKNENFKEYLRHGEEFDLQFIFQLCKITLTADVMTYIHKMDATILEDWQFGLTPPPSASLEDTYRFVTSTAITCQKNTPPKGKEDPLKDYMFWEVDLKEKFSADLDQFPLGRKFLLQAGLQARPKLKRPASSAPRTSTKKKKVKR

B1: HPV 16 R001 (antibody, V domains shown)
VH: QSVKESEGRLVTPGTPLTLTCTASGFTMSRYHMTWVRQAPGKGLEWIGIIYARNSDTYYANWAKGRFTISKTSTTVDLKITSPTIEDTATYFCARVDSDSSGAFDRLDLWGQGTLVTVSS
VL: DPMLTQTAASVEVAVGGTVTIKCQASQSIGGYLSWYQQKPGQRPKLLIYRASTLASGVPSRFKGSGSGTEYTLTFSGVECADAAAYYCQQGYTSSDINNAFGGGTEVVVK
notes: An HRP-labelled form served as detection antibody in the sandwich ELISA; also called HPV16.001; 单克隆抗体HPV 16 R001
As to B1, the OD450-blank with HPV11 VLP was 0.001 OD450; with HPV18 VLP, 0 OD450; with HPV58 VLP it was 0.003 OD450; in the experiment with HPV51 VLP, 0.001 OD450; in the experiment with HPV52 VLP, 0.003 OD450.

For the origin of these results see patent CN112125972A (SINOCELLTECH LTD, dated 2020).
